From article PMC7910268 come the findings set out here.

Substrate in series [1]: NC(=O)c1ccc[n+]([C@@H]2O[C@H](COP(=O)(O)OP(=O)(O)OC[C@H]3O[C@@H](n4cnc5c(N)ncnc54)[C@H](O)[C@@H]3O)[C@@H](O)[C@H]2O)c1
The experiment in a line: purified protein. The class given is biochemical, Sphingopyxis fribergensis. As to conditions: phenylacetaldehyde 0.5 mmol L^-1, pH 7.7, aldehyde made from styrene oxide by SOI-1CP, varied: cofactor.

Substrate in series [2]: O=CCc1ccccc1
The experiment in a line: purified protein. As to conditions: NAD+ 2.5 mmol L^-1, pH 7.7, aldehyde made from styrene oxide by SOI-1CP. The class given is biochemical, Sphingopyxis fribergensis.

B1: FeaB-Kp5.2 (Sphingopyxis fribergensis) (protein)
chain: MATAQSYVTPLSAVSTFIGHDHGLFIDGDWRAAKGTERLDVFDPSTGEPIASVANASPDDVDHAVRAAHKAFESGVWSGIAPAERERLLLKFADLVEANAEELAQIETLNQGKSINISRFVDVGGAPAYMRYVAGLTTKITGETFDVSIGAIPGARFTASTRREPIGVVGAIAPWNFPMMIGLWKIMPALAAGCTVVLKPSEVTPLTSLRLASLAKEAGLPAGVLNVITGDGKAGKALVDHPLVAKITFTGSTATGKAIARSASDRLLRTSLELGGKNPAIFLADAPIEQAVQGAILGGFFNNGQVCAASSRLYIARAIYDPFIKALAHAVDGMTMGPGLDTAAQINPVVSLQHRAKILDHIARARQDGAQIVAGGESPDRAGYYVRPTVVVGAGAQLAISRQEVFGPLVTVTPFDDEDEAINLANDTEMGLTASLWTNDLKKTMDLVPRIKAGTVWVNCHNLIDPNMPFGGYKESGIGRDFGIHSLDGYSEVKSVCIAH
In the case of B1, in “purified protein [1]”, the Michaelis-Menten constant (Km) stood at 500 ± 300 µM, the Vmax worked out at 17.8 µmol/min/mg and the kcat was found to be 62.5 s⁻¹. In the series “purified protein [2]”, the Km stood at 22 ± 5 µM, the Vmax was determined as 14.8 µmol/min/mg and the kcat turned out to be 52 s⁻¹.
